We go through two molecules from patent US20130251712A1 (NATIONAL RESEARCH COUNCIL OF CANADA, published 2013).

Assay [1] deals with T1, TβR2ECD-cK5 (TβR2ECD with linker cassette fused to the cK5 C-terminal construct) (human).
T1 construct: Conditioned medium of 293 cells, expressed alone; also called TβR2-K5coil with internal cys/TEV
T1 chain: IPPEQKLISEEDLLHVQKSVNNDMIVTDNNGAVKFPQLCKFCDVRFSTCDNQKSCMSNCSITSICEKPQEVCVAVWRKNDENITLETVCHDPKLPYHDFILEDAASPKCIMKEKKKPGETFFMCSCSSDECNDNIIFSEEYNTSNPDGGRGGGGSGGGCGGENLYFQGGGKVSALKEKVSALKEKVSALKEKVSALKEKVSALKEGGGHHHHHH
Kind of assay: non-reducing SDS gel and western blot with anti-TβR2 antibody; E/K coil dimer fixed by an interchain disulfide. In general terms: A western blot detects proteins with antibodies after separation by electrophoresis.

Assay [2] concerns the target T2, TβR2cK (R2cK), receptor-coil fusion with thrombin cleavage site, expressed alone (human).
T2 construct: Conditioned medium of 293 cells; also called TβR2cKcoil
T2 chain: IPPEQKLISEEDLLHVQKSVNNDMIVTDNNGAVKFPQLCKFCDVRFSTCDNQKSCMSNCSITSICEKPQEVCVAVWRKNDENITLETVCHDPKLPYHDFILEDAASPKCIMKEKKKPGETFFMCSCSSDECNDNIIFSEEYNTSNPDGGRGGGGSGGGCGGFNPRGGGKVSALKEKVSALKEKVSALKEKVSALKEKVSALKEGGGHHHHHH
In words: non-reducing SDS gel and western blot with anti-TβRII antibody; E/K coil dimer fixed by an interchain disulfide. The procedure: Plasmids encoding the R2cK and R2cE constructs were transfected separately or co-transfected into 293 cells. Conditioned media from these cells were then analyzed by western blot to detect R2cK and R2cE expression and tested for TGF-β3 neutralization (FIG. 6A-C). By themselves R2cE or R2cK were unable to neutralize TGF-β3. […] Based on their activities in FIG. 6A, these forms are non-productive, i.e. cannot neutralize TGF-β. Expressed together, R2cE+R2cK predominantly form dimers of about 80 Kd and only minimal amounts of the monomers are seen in the non-reducing gel (FIG. 6B, lane 3), indicating a covalent, inter-chain disulfide bridge has been established (Click, FIG. 6B). Subsequent cleavage of R2cE+R2cK with a sufficient amount of thrombin (++) generates an R2c+R2c dimer (about 60 Kd) that is held together by an inter-chain disulfide (in the non-reducing SDS gel) and that no longer contains the coils (Cleave, FIG. 6C). The resultant TGF-/3 trap generated by the clamp/click/cleave (CCC) process described above is depicted as a molecular model in FIG. 7.

B1: TβR2ECD-cE5 (TβR2ECD with linker cassette fused to the cE5 C-terminal construct) (receptor)
chain: IPPEQKLISEEDLLHVQKSVNNDMIVTDNNGAVKFPQLCKFCDVRFSTCDNQKSCMSNCSITSICEKPQEVCVAVWRKNDENITLETVCHDPKLPYHDFILEDAASPKCIMKEKKKPGETFFMCSCSSDECNDNIIFSEEYNTSNPDGGRGGGGSGGGCGGENLYFQGGGEVSALEKEVSALEKEVSALEKEVSALEKEVSALEKGGGHHHHHH
notes: Secreted into conditioned medium of transfected 293 cells; tested unpurified, expressed alone; also called TβR2-E5coil with internal cys/TEV
B1: the binding result in assay [1] is “binds”.

B2: TβR2cE (R2cE), receptor-coil fusion with thrombin cleavage site, expressed alone (receptor)
chain: IPPEQKLISEEDLLHVQKSVNNDMIVTDNNGAVKFPQLCKFCDVRFSTCDNQKSCMSNCSITSICEKPQEVCVAVWRKNDENITLETVCHDPKLPYHDFILEDAASPKCIMKEKKKPGETFFMCSCSSDECNDNIIFSEEYNTSNPDGGRGGGGSGGGCGGFNPRGGGEVSALEKEVSALEKEVSALEKEVSALEKEVSALEKGGGHHHHHH
notes: Conditioned medium of 293 cells; also called TβR2cEcoil
For the molecule B2, the binding result in assay [2] was “binds”.
